{
  "source": "patent US5223421A",
  "about": "“Identification of methionine Nα-acetyltransferase” (The General Hospital Corporation, priority 1990, dated 1993)",
  "key": {"[1]": {"biological_target": "T1, N^α -acetyltransferase activity of crude yeast lysate, aaa1 mutant strain T3A-a (Saccharomyces cerevisiae, UniProt Q06504)", "T1 construct": "a crude yeast homogenate from the aaa1 mutant strain; endogenous in cells; host or cells: Saccharomyces cerevisiae strain T3A-a (aaa1), crude lysate", "T1 sequence (Q06504 1-195)": "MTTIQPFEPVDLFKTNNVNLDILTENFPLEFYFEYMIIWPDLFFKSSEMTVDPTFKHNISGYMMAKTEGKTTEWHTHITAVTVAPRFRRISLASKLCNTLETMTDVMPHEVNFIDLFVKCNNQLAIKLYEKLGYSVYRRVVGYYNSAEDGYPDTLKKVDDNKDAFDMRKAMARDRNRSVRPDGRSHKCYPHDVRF", "T1 sequence (Q12387 1-796 partner)": "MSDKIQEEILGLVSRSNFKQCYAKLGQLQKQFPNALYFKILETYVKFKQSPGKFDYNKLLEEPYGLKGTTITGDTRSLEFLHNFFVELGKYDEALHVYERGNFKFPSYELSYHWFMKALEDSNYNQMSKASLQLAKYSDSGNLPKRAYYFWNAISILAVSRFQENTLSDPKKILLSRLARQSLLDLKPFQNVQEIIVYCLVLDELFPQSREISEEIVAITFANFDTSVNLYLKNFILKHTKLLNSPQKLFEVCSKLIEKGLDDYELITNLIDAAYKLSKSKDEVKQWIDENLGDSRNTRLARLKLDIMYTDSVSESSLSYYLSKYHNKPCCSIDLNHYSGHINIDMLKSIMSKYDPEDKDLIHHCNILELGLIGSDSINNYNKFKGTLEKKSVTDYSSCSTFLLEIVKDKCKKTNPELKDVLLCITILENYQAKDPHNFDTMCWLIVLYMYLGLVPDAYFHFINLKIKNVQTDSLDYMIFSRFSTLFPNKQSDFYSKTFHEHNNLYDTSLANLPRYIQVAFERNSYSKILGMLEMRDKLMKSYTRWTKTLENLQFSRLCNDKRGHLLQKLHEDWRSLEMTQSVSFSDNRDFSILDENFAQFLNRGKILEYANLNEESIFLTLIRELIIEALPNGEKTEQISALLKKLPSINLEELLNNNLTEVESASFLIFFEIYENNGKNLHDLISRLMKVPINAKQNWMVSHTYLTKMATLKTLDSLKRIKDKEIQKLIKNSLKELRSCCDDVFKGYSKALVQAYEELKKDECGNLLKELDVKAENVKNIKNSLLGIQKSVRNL", "assay": "N^α -acetylation of peptide substrates by crude yeast lysate, aaa1 mutant strain", "assay_type": "biochemical", "conditions": "for Activity (%) aaa1: crude lysate of aaa1 mutant strain T3A-a, mean ± SD (N=3-5), normalized to human adrenocorticotropic hormone (1-24), 50 μM peptide", "description": "(§1) N^α -acetyltransferase activity was determined as previously described [Lee et al., J. Biol. Chem. 263:14948-14955 (1988)]. Aliquots of the lysate or chromatographic fractions were added to 1.5 ml Eppendorf tubes containing a reaction mixture of 50 mM HEPES, pH 7.4, 150 mM KCl, 1 mM DTT, 25 μM [^3 H] acetyl coenzyme A (0.5 μCi) and 50 μM synthetic peptide with an adjusted final volume of 100 μl. The assay mixture was incubated at 30° C. for 30 min. The reaction was stopped by adding 17 μl of 0.5M acetic acid and chilled in an ice bath. The reaction samples were filtered through SP membrane discs (Cuno) (previously pre-swollen in 0.5M acetic acid), and then washed three times with 1 ml of 0.5M acetic acid on a Millipore 1225 sampling manifold. The partially dried membranes were placed in scintillation cocktail and counted with a Beckman LS 3801 scintillation counter. One unit of activity was defined as the amount of enzyme able to transfer 1 pmol of [^3 H] acetyl group from [^3 H] acetyl coenzyme A to synthetic peptide per min under standard enzyme assay conditions defined above.\n(§2) The wild-type (containing endogenous N^α -acetyltransferase activity) and the aaa1 (lacking endogenous N^α -acetyltransferase activity) strains were T3A and T3A-a, respectively (Lee, F-J. S., et al., J. Bacteriol. 171, 5795-5802 (1989)). Human adrenocorticotropic hormone (1-24), yeast alcohol dehydrogenase (1-24), and human superoxide dismutase (1-24) have either serine or alanine as amino-terminal residues, while proteinase A inhibitor 3 has a methionine residue. The synthesis of the peptide substrates, the preparation of the crude yeast homogenate, and the assay of enzyme activity were as previously described by Lee et al. (Lee, F-J. S., et al., J. Biol. Chem. 263:14948 (1988); Kamitani, K., et al., J. Biol. Chem. 264:13188 (1989)). The numbers in parentheses refer to the residue numbers, and the letters in parentheses specify the amino acid sequence. Abbreviations: A (alanine), C (cysteine), D (aspartic acid), E (glutamic acid), F (phenylalanine), G (glycine), H (histidine), I (isoleucine), K (lysine), L (leucine), M (methionine), N (asparagine), P (proline), Q (glutamine), R (arginine), S (serine), T (threonine), V (valine), W (tryptophan). Data are reported as mean activity±SD (N=3-5) and are normalized to the activity of the homogenate towards human adrenocorticotropic hormone (1-24)."}, "[2]": {"test_system": "N^α -acetyltransferase activity of crude yeast lysate, wild-type (AAA1) strain T3A", "assay": "N^α -acetylation of peptide substrates by crude yeast lysate, wild-type strain", "assay_type": "biochemical, Saccharomyces cerevisiae", "conditions": "for Activity (%) AAA1: crude lysate of wild-type strain T3A, mean ± SD (N=3-5), normalized to human adrenocorticotropic hormone (1-24), 50 μM peptide", "description": "as §1, §2"}},
  "data": [
    {"substance": "MNTDQQKVSEIFQSSKEKLQGDAK (MNTDQQKVSEIFQSSKEKLQGDAK) [Proteinase A Inhibitor 3 (1-24) (Yeast)]", "values": [
      {"measurement": "Activity (%) aaa1", "setting": "[1]", "value": "80 ± 5", "unit": "%"},
      {"measurement": "acetylation of the peptide substrate by aaa1 mutant", "setting": "[1]; crude lysate, aaa1 mutant", "value": "capable of acetylating"},
      {"measurement": "Activity (%) AAA1", "setting": "[2]", "value": "75 ± 5", "unit": "%"},
      {"measurement": "acetylation of the peptide substrate by wild-type strain", "setting": "[2]; crude lysate, wild-type strain", "value": "capable of acetylating"}
    ]},
    {"substance": "SIPETQKGVIFYESHGKLEYKDIP (SIPETQKGVIFYESHGKLEYKDIP) [Alcohol dehydrogenase (1-24) (Yeast)]", "values": [
      {"measurement": "Activity (%) aaa1", "setting": "[1]", "value": 0, "unit": "%"},
      {"measurement": "Activity (%) AAA1", "setting": "[2]", "value": "102 ± 5", "unit": "%"}
    ]},
    {"substance": "SYSMEHFRWGKPVGKKRRPVKVYP", "values": [
      {"measurement": "Activity (%) aaa1", "setting": "[1]", "value": 0, "unit": "%"},
      {"measurement": "Activity (%) AAA1", "setting": "[2]", "value": "100 ± 5", "unit": "%"}
    ]}
  ]
}
